Reference: the supplement of paper PMC9170038

System: MS2 coat protein
Assay: apparent KD of MS2 coat protein; higher = weaker reporter binding
Details: Eterna round: R107
Method: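 RNA-MaP round R107: designed RNA switches with theophylline, tryptophan, arginine or FMN aptamers are transcribed on-chip within common flanks. They are titrated with SNAP-549-labelled MS2 coat protein in RNA-MaP buffer (100 mM Tris pH 7.5, 80 mM KCl, 4 mM MgCl2), without ligand or with the indicated ligand. Median apparent KD per design.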

[1] = input ligand: theophylline 20 uM
[2] = input ligand: theophylline 2 mM
[3] = input ligand: tryptophan 2.4 mM

In the case of “CCGGCCAAUUAGAAAUUAAUUGGCCGGAAACGAGGACCGGUACGGCCGCCACUCGUGGCGGGAGAAACAUGAGGAUCACCCAUGU”, the “apparent KD of MS2 coat protein” value (input ligand: arginine 13.2 mM) is reported as 23 nM, the “apparent KD of MS2 coat protein” value [1] is reported as 54.7 nM and the “apparent KD of MS2 coat protein” value [2] is reported as 53 nM.

“ACGUCCGGUUUACUCGUGGGCAUGGUCGAUACCAGUAUUUUAAUCUACCCUUGGCAGCGACAUGAGGAUCACCCAUGUGCGAAGA [XTheo A #21]” was tested, and the “apparent KD of MS2 coat protein” value (input ligand: arginine 13.2 mM) was 21.5 nM, the “apparent KD of MS2 coat protein” value [1] was 30.6 nM and the “apparent KD of MS2 coat protein” value [3] was 22.8 nM.

In the case of “GGUGGCUGGAUUGAUACCAGCCACCACCGAUAGACCACAUGAGGAUCACCCAUGUUGGGUGGCCCUUGGCAGCAGUCCAGCUGCC [#1 Same State - Theophylline B Attempt #9 (HarryS)]”, the “apparent KD of MS2 coat protein” value (input ligand: arginine 13.2 mM) is reported as 70.5 nM, the “apparent KD of MS2 coat protein” value (input ligand: none) is reported as 388 nM and the “apparent KD of MS2 coat protein” value [1] is reported as 649 nM. For the same sequence, the “apparent KD of MS2 coat protein” value [2] was 828 nM and the “apparent KD of MS2 coat protein” value [3] was 886 nM.

For “GGGUACAUCGCGGCCGCCACUCAUGUAAAUGCAUGAGGAUCACCCAUGUCGAUGGAGACAUCGGAGAGGACCGGGUGAUGUACCG”, the “apparent KD of MS2 coat protein” value (input ligand: arginine 13.2 mM) was 108 nM, the “apparent KD of MS2 coat protein” value (input ligand: none) was 259 nM and the “apparent KD of MS2 coat protein” value [1] was 268 nM. For the same sequence, the “apparent KD of MS2 coat protein” value [2] was 313 nM and the “apparent KD of MS2 coat protein” value [3] was 193 nM.

In the case of “AGGACAUGAGGAUCACCCAUGUACACUGAAGGAGCGUCGAGAACGACAGGUAGGUCGCAGGCUAAGGAAGGUGAUGCUCAAGAAG [Exclusion Arginine A GF6]”, the “apparent KD of MS2 coat protein” value (input ligand: arginine 13.2 mM) is reported as 28.2 nM, the “apparent KD of MS2 coat protein” value (input ligand: none) is reported as 26.2 nM and the “apparent KD of MS2 coat protein” value [1] is reported as 40.9 nM. For the same sequence, the “apparent KD of MS2 coat protein” value [2] was 29.8 nM and the “apparent KD of MS2 coat protein” value [3] was 27.1 nM.

In the case of “AGCCACUCGAGUGAUCCUCACGAGUGGCUACGAGGACCGGUACGGCCGCCACUCGAAUUAACAUGAGGAUCACCCAUGUAAUCAU [Brourdmod04]”, the “apparent KD of MS2 coat protein” value (input ligand: arginine 13.2 mM) is reported as 97.8 nM, the “apparent KD of MS2 coat protein” value [1] is reported as 259 nM and the “apparent KD of MS2 coat protein” value [2] is reported as 317 nM.

For “UCGCCCGGGUCGGCCGCCACUGCGGUGAUGUGACAUGAGGAUCACCCAUGUUGUCAUGUGGCACAUAGGACCGGGACCCGGGCGA [Exclusion - Tryptophan B Attempt #4 (HarryS)]”, the “apparent KD of MS2 coat protein” value (input ligand: arginine 13.2 mM) was 23.2 nM, the “apparent KD of MS2 coat protein” value [1] was 45.3 nM and the “apparent KD of MS2 coat protein” value [2] was 40.3 nM.

For “AUACAUGAGGAUCACCCAUGUUAUAGUGAAGGAGCGACAUUUAUGUCAGGUAGGUCGCACUGUUGUUUAAUGAUUCUUGGAUCUU [#20 Exclusion - Arginine A]”, the “apparent KD of MS2 coat protein” value (input ligand: arginine 13.2 mM) was 16 nM, the “apparent KD of MS2 coat protein” value (input ligand: none) was 13.3 nM and the “apparent KD of MS2 coat protein” value [1] was 18.9 nM. The “apparent KD of MS2 coat protein” value [2] was 14.1 nM and the “apparent KD of MS2 coat protein” value [3] was 15.1 nM.

With “GGAGUAGGAAACUAUUCCAAUCCUCGUGAACGAGGACCGGUACGGCCGCCACUCGAUAAUUAAUAACAUGAGGAUCACCCAUGUA [Ex Tryptophan A 21]” the “apparent KD of MS2 coat protein” value (input ligand: arginine 13.2 mM) was 36.6 nM, the “apparent KD of MS2 coat protein” value [1] was 80.4 nM and the “apparent KD of MS2 coat protein” value [2] was 89 nM.

With “AAUCAUAACUGAAGGAGCGUCUAUAUUACAUGAGGAUCACCCAUGUUUAUAUGGUAUUAUAGACAGGUAGGUCGCAGAUUUUUUA [JR_SSArginiB_Sub017]” the “apparent KD of MS2 coat protein” value (input ligand: arginine 13.2 mM) was 20.7 nM, the “apparent KD of MS2 coat protein” value (input ligand: none) was 16.8 nM and the “apparent KD of MS2 coat protein” value [1] was 21.6 nM. The “apparent KD of MS2 coat protein” value [2] was 18.7 nM and the “apparent KD of MS2 coat protein” value [3] was 15.8 nM.

For “UCACAUGAGGAUCACCCAUGUAAAGUUGAAGGAGCGAUCAUUAGGUCAGGUAGGUCGCAACACAUGAGGAUCACCCAUGUUGUCC [DOUBLE!!! :-D]”, the “apparent KD of MS2 coat protein” value (input ligand: arginine 13.2 mM) was 25.7 nM, the “apparent KD of MS2 coat protein” value (input ligand: none) was 40.8 nM and the “apparent KD of MS2 coat protein” value [1] was 49.9 nM. For the same sequence, the “apparent KD of MS2 coat protein” value [2] was 47.1 nM and the “apparent KD of MS2 coat protein” value [3] was 38.3 nM.

With “CCCAAUUUCCGAGAUAUGGGUCCAACUAAACGAGGACCGGUACGGCCGCCACUCGACUACAAACAUGAGGAUCACCCAUGUAAAG [theeternabot_exclusion_MS2_Trp_A_40]” the “apparent KD of MS2 coat protein” value (input ligand: arginine 13.2 mM) was 17.6 nM, the “apparent KD of MS2 coat protein” value [1] was 20 nM and the “apparent KD of MS2 coat protein” value [2] was 19.8 nM.

For “AACCACAUGAGGAUCACCCAUGUGACCGCUCGAGGACCGGUACGGCCGCCACUCGUGGAGGGACUUAUGCGUUAUCCGGGUAAAU [theeternabot_sameState_MS2_Trp_A_29]”, the “apparent KD of MS2 coat protein” value (input ligand: arginine 13.2 mM) was 16.9 nM, the “apparent KD of MS2 coat protein” value [1] was 27 nM and the “apparent KD of MS2 coat protein” value [2] was 20.9 nM.

With “CACAUGAGGAUCACCCAUGUCUGAACUGAAGGAGCGCUAAAUAAGGCAGGUAGGUCGCGGAAUCGUGUGUGCAUAUGCACACGCG [9.U]” the “apparent KD of MS2 coat protein” value (input ligand: arginine 13.2 mM) was 17.8 nM, the “apparent KD of MS2 coat protein” value (input ligand: none) was 24 nM and the “apparent KD of MS2 coat protein” value [1] was 35.7 nM. For the same sequence, the “apparent KD of MS2 coat protein” value [2] was 25.3 nM and the “apparent KD of MS2 coat protein” value [3] was 18 nM.

With “GCACAUGAGGAUCACCCAUGUACAACUGAAGGAGCGAGACAGAACUCAGGUAGGUCGCAGAAUGCACAAUAGCAUACGACAUGGG [Exclusion Arginine A GF20]” the “apparent KD of MS2 coat protein” value (input ligand: arginine 13.2 mM) was 20.2 nM, the “apparent KD of MS2 coat protein” value (input ligand: none) was 20.8 nM and the “apparent KD of MS2 coat protein” value [1] was 52.1 nM. The “apparent KD of MS2 coat protein” value [2] was 23.8 nM and the “apparent KD of MS2 coat protein” value [3] was 24.2 nM.
